Biological target: LexA-DP-1 (pLEX(HIS).DP-1: complete bacterial LexA protein fused to DP-1 residues 59 to 410) (bacterial; murine) (UniProt Q08639)
Experiment: cell-based or functional assay

UniProt Q08639, sequence (Q08639 59-410): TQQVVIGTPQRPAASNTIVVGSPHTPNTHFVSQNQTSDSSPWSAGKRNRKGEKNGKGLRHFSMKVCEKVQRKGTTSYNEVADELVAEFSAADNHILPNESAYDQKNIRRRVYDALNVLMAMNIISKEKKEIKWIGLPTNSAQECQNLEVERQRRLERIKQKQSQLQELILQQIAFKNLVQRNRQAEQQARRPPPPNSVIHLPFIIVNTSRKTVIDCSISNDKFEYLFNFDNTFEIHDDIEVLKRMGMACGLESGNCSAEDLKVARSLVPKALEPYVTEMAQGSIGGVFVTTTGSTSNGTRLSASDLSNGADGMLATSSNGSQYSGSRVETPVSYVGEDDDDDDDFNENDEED

transcriptional activity of the E2F site reporter p4xWT CYC1 in yeast: > 6 fold
Substance: GAD-E2F-5 (pGAD.E2F-5: entire murine E2F-5 as a hybrid with the GAL4 activation domain 768-881) (from UniProt P04386 768-881)

Reference: patent US6448376
